Laboratory results reported in PMC8882007, “Syndapin-2 mediated transcytosis of amyloid-β across the blood–brain barrier” (Brain Communications, 2022).

T1: dynamin-2 (mouse (endogenous in bEnd3), UniProt P39054 1-870)
T1 construct: dynamin-2, endogenous in mouse brain endothelial cells (bEnd3); source: endogenous, bEnd3 mouse brain endothelial cells (fixed, permeabilized)
T1 sequence (looked up): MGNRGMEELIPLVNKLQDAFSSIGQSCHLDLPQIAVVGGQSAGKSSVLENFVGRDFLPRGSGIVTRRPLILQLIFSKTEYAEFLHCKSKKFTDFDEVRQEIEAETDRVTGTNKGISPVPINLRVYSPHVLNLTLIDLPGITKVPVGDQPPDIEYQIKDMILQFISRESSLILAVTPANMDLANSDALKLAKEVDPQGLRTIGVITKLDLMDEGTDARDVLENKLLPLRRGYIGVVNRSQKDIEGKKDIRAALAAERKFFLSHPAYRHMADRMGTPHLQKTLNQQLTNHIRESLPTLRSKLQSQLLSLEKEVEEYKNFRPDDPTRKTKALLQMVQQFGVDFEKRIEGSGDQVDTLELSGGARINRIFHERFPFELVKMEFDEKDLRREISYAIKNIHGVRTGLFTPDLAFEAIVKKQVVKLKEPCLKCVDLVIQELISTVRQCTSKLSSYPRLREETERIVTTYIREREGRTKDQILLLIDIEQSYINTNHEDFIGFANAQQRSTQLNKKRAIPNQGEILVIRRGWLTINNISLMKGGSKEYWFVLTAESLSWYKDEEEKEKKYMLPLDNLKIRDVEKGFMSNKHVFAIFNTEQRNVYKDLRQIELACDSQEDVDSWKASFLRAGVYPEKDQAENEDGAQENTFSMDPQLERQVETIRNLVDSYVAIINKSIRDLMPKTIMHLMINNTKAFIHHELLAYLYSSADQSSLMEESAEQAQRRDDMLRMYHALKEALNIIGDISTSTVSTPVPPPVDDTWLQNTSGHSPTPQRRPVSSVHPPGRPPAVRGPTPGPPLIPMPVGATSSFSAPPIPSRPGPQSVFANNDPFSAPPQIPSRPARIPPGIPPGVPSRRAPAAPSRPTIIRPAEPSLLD

T2: EEA-1 (mouse (endogenous in bEnd3), UniProt Q8BL66 1-1411)
T2 construct: EEA-1 (early endosome marker), endogenous in mouse brain endothelial cells (bEnd3); also called early endosomes (EEA-1); source: endogenous, bEnd3 mouse brain endothelial cells (fixed, permeabilized)
T2 sequence (looked up): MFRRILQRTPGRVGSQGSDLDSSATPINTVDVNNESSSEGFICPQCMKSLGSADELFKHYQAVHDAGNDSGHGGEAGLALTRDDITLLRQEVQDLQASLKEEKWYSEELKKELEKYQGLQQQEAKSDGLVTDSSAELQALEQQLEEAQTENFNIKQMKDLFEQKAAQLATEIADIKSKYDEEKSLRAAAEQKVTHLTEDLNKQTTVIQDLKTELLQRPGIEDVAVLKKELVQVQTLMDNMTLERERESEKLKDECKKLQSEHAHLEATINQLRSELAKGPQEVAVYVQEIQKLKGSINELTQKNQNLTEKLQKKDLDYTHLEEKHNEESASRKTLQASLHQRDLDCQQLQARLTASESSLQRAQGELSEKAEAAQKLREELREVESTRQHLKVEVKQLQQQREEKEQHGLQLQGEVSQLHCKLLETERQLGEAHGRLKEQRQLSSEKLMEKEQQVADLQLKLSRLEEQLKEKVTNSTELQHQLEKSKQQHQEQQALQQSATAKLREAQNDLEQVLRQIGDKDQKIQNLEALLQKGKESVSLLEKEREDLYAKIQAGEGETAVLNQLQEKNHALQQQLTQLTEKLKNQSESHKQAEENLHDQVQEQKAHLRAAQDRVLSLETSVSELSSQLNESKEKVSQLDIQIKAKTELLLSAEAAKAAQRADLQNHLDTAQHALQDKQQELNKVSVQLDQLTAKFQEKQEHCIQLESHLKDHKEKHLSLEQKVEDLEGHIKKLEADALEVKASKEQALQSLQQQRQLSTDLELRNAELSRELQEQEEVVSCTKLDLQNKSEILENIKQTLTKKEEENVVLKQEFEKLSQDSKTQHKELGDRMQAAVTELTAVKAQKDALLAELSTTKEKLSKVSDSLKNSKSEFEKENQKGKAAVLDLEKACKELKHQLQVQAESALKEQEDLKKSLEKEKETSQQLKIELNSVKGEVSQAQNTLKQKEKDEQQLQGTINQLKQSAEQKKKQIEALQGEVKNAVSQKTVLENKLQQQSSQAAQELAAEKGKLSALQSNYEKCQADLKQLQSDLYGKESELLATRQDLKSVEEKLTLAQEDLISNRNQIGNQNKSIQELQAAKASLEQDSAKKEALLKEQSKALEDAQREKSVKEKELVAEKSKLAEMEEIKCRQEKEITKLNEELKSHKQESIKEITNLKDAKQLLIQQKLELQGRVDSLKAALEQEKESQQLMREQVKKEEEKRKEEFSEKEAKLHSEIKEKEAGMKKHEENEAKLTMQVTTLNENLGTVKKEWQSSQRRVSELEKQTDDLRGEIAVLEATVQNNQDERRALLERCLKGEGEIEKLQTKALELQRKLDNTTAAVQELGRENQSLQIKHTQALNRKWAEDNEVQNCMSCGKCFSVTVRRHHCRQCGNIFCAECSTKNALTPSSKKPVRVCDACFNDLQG

B1: syndapin-2 (natural protein, mouse (endogenous in bEnd3), UniProt Q9WVE8 1-486, looked up)
chain: MSVTYDDSVGVEVSSDSFWEVGNYKRTVKRIDDGHRLCGDLMNCLHERARIEKAYAQQLTEWARRWRQLVEKGPQYGTVEKAWIAVMSEAERVSELHLEVKASLMNEDFEKIKNWQKEAFHKQMMGGFKETKEAEDGFRKAQKPWAKKLKEVEAAKKAHHTACKEEKLAISREANSKADPSLNPEQLKKLQDKIEKCKQDVLKTKDKYEKSLKELDQTTPQYMENMEQVFEQCQQFEEKRLRFFREVLLEVQKHLDLSNVASYKTIYRELEQSIKAADAVEDLRWFRANHGPGMAMNWPQFEEWSADLNRTLSRREKKKAVDGVTLTGINQTGDQSGQNKPGSNLSVPSNPAQSTQLQSSYNPFEDEDDTGSSISEKEDIKAKNVSSYEKTQTYPTDWSDDESNNPFSSTDANGDSNPFDEDTTSGTEVRVRALYDYEGQEHDELSFKAGDELTKIEDEDEQGWCKGRLDSGQVGLYPANYVEAIQ
notes: syndapin-2 (PACSIN-2), F-BAR protein, endogenous in mouse brain endothelial cells (bEnd3); also called PACSIN-2; Syn-2; source: endogenous, bEnd3 mouse brain endothelial cells (fixed, permeabilized)
B2: apolipoprotein E (ligand, mouse (endogenous in bEnd3), UniProt P08226 19-311, looked up)
chain: EGEPEVTDQLEWQSNQPWEQALNRFWDYLRWVQTLSDQVQEELQSSQVTQELTALMEDTMTEVKAYKKELEEQLGPVAEETRARLGKEVQAAQARLGADMEDLRNRLGQYRNEVHTMLGQSTEEIRARLSTHLRKMRKRLMRDAEDLQKRLAVYKAGAREGAERGVSAIRERLGPLVEQGRQRTANLGAGAAQPLRDRAQAFGDRIRGRLEEVGNQARDRLEEVREHMEEVRSKMEEQTQQIRLQAEIFQARLKGWFEPIVEDMHRQWANLMEKIQASVATNPIITPVAQENQ
notes: apolipoprotein E (ApoE), detected in mouse brain endothelial cells (bEnd3); also called ApoE; source: endogenous, bEnd3 mouse brain endothelial cells (fixed, permeabilized)

Experiments:
Test in all cases: proximity ligation; Duolink PLA between two endogenous proteins in polarized bEnd3 monolayers, fixed in 4% PFA and permeabilized with 0.1% Triton X-100; two primary antibodies overnight at 4°C; PLA signal normalized by the number of nuclei; also in shRNA control (scramble) and syndapin-2 knockdown cells, and after FAM-Aβ (1–40) or Aβ monomers, oligomers or fibrils for 15 min
Conditions in all cases: partners not purified
β-actin = β-actin (mouse (endogenous in bEnd3), UniProt P60710 1-375)
heavy chain of clathrin = target: T3, heavy chain of clathrin (mouse (endogenous in bEnd3), UniProt Q68FD5 1-1675)
T3 construct: clathrin heavy chain, endogenous in mouse brain endothelial cells (bEnd3); source: endogenous, bEnd3 mouse brain endothelial cells (fixed, permeabilized)

dynamin-2 = target: T1, dynamin-2
apolipoprotein E = target: B2
[1] = target: T4, low-density lipoprotein receptor-related protein 1 (mouse (endogenous in bEnd3), UniProt Q91ZX7 20-4545)
T4 construct: low-density lipoprotein receptor-related protein 1 (LRP1), endogenous in mouse brain endothelial cells (bEnd3); also called LRP1; source: endogenous, bEnd3 mouse brain endothelial cells (fixed, permeabilized)
T4 sequence (Q91ZX7 20-4545): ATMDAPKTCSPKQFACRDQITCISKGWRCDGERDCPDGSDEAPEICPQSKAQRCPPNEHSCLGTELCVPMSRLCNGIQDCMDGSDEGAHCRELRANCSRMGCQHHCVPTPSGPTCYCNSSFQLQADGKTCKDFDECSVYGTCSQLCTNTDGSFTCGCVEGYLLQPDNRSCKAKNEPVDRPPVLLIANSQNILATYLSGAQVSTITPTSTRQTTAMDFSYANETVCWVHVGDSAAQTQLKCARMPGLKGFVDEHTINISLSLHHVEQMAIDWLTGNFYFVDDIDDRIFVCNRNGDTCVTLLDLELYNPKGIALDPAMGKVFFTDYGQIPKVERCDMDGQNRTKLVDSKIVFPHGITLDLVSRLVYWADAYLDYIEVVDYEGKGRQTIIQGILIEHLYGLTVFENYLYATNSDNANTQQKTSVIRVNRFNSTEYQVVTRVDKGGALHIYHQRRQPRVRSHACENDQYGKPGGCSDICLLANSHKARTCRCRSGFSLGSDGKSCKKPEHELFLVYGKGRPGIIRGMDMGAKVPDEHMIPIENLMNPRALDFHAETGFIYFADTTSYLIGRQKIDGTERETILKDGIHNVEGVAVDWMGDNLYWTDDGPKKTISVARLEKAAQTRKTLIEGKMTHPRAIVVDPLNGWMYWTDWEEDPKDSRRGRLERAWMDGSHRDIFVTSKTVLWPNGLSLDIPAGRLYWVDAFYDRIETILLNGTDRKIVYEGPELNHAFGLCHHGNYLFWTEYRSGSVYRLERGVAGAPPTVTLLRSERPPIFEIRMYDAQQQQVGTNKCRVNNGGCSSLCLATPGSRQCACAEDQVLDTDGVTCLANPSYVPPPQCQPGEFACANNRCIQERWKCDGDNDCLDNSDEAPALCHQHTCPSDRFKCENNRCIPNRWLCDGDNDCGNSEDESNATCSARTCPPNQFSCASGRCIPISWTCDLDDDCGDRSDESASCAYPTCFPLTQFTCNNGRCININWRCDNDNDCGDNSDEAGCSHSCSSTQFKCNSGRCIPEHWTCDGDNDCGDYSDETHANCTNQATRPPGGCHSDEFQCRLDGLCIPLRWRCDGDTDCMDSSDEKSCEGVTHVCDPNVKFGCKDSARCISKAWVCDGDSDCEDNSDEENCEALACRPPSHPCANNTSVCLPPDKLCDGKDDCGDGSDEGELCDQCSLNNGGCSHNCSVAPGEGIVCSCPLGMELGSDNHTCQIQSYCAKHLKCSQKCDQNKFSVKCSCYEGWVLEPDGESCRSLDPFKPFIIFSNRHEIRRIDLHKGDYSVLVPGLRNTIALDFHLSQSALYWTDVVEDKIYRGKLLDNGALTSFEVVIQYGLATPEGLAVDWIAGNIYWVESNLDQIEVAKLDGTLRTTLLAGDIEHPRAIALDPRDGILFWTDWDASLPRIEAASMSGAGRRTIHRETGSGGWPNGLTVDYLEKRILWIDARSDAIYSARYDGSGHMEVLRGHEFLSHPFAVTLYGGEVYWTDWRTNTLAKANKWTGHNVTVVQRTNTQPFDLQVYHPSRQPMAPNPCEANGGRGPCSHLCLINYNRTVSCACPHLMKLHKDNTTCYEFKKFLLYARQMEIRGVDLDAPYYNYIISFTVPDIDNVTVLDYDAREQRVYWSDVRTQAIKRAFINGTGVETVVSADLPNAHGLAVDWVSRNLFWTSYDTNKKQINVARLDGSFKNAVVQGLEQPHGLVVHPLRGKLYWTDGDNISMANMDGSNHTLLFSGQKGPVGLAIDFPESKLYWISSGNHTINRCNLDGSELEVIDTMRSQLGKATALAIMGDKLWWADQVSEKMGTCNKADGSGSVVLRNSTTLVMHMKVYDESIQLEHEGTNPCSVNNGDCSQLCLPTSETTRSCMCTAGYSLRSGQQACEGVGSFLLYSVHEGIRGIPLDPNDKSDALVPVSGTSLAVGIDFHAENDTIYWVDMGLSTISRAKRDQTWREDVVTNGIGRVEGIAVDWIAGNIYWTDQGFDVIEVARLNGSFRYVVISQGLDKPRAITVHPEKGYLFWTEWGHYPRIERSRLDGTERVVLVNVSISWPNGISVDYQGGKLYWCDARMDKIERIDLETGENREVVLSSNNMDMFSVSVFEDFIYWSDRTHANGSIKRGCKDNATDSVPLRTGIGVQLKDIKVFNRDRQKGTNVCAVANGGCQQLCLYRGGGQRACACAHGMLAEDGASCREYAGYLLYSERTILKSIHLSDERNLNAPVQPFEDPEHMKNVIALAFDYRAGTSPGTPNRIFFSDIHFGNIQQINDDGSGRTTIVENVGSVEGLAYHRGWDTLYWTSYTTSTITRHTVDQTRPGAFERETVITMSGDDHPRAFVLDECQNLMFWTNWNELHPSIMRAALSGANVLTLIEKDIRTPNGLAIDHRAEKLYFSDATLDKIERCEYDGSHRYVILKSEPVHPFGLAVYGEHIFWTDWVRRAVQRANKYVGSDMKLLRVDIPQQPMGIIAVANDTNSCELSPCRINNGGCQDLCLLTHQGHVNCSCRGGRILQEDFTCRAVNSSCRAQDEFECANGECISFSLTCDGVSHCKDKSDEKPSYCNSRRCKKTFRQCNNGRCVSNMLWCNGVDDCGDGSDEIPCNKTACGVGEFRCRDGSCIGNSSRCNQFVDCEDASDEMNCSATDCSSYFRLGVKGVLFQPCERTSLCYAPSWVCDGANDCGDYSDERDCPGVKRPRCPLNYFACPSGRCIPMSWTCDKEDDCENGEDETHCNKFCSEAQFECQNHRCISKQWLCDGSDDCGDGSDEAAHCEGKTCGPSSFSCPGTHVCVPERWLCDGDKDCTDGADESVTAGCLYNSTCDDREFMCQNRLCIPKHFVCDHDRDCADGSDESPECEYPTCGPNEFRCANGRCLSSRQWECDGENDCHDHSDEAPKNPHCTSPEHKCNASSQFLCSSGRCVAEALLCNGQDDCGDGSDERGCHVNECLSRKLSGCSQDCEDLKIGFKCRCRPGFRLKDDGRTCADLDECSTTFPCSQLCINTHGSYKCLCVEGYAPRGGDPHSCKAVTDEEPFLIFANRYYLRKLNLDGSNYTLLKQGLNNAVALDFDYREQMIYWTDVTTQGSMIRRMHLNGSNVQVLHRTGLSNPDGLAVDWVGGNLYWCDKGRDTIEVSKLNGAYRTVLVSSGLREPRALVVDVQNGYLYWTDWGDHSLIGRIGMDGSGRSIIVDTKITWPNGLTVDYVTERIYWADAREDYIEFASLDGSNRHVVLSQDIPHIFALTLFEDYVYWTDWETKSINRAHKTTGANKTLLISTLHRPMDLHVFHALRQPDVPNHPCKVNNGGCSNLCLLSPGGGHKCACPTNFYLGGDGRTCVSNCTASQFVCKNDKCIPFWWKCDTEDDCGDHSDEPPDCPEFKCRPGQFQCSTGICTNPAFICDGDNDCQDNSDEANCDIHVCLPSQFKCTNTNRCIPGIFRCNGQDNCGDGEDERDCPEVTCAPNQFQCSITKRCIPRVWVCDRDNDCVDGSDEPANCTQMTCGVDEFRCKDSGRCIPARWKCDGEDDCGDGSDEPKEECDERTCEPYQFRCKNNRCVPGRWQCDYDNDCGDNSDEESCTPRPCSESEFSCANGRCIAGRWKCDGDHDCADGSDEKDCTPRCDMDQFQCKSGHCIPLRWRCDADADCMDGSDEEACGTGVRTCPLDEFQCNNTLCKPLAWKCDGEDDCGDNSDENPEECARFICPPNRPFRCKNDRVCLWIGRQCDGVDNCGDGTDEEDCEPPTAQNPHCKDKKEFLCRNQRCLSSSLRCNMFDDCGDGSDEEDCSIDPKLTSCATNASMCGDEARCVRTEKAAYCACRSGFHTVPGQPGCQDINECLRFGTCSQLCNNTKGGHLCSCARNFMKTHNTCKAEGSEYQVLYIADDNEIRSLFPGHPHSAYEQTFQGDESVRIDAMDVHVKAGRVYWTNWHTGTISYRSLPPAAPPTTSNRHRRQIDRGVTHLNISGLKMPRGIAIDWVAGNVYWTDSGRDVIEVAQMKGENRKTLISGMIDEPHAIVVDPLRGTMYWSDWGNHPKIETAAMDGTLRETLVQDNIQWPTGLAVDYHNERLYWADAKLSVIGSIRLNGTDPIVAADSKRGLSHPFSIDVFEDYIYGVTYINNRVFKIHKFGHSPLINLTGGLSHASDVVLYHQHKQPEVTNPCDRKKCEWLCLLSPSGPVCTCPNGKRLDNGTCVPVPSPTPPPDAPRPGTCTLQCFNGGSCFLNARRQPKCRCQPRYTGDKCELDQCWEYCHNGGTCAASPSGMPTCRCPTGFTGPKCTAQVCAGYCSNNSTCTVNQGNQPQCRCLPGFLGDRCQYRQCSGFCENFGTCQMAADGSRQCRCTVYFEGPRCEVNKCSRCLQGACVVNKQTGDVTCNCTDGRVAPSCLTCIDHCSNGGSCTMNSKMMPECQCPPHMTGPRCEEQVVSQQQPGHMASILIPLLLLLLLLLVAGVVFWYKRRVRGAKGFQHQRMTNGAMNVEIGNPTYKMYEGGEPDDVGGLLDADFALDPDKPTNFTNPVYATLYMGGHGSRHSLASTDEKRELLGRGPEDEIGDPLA

EEA-1 = target: T2, EEA-1

| PLA dots per cell (β-actin) [dots per cell] | PLA dots per cell (heavy chain of clathrin) [dots per cell] | PLA dots per cell (dynamin-2) [dots per cell] | PLA dots per cell (apolipoprotein E) [dots per cell] | PLA dots per cell [1] [dots per cell] | PLA dots per cell (EEA-1) [dots per cell] | Binder |
| --- | --- | --- | --- | --- | --- | --- |
| ~150 | ~150 | ~150 | ~250 | ~250 | < 20 | B1 |
| – | – | – | – | ~80 | – | B2 |
